This note sets out measurements from publication PMC12218921, “An adaptive peptide-binding site in ubiquitin receptor hRpn13 revealed by structural studies” (Nature Communications, 2025).

The target of the experiment is T1, hRpn13_ΔMTT (Homo sapiens, UniProt Q16186).
T1 construct: recombinant plasmid of hRpn13 Pru (1–150) cloned into the pRSET vector; GST (N, cleaved yes); residual Gly-Ser (^cG-^dS) left after cleavage; made in house; host or cells: Escherichia coli BL21 (DE3); pGEX-4T-1 plasmid synthesized by GenScript (Addgene 237412)
T1 sequence (Q16186 4-150, stated change not applied): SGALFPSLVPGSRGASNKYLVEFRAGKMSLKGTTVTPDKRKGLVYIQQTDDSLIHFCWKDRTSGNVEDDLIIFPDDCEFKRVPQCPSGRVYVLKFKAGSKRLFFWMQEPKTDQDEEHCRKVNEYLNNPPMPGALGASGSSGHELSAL
As to the kind of experiment: 1H-15N HSQC NMR, K48-diUb constructs with hRpn13_ΔMTT. To be noted: for ubiquitin contact surface binding (HSQC): varying K48-diUb concentrations. It is filed as binding. Here is the method: To test further whether peptide binding can influence hRpn13 Pru interaction with ubiquitin, we generated K48-linked diubiquitin in which the distal moiety (linked via G76) is extended by a 6-residue linker sequence of GSGGSG followed by either the ENT (K48-diUb^ENT) or EDGEGEE (K48-diUb^EDGEGEE) sequence. Varying concentrations of K48-diUb^ENT, K48-diUb^EDGEGEE, or K48-diUb^D77 were added to 100 μM ^15N-labeled hRpn13_ΔMTT and effects on hRpn13 monitored by recording ^1H-^15N HSQC spectra.
K48-diUb samples were produced by using a similar method as previously described. Briefly, Ub-D77 (proximal), Ub-ENT (proximal), Ub-EDGEGEE (proximal) and Ub-K48R (distal) were added at a final concentration of 0.8 mM to a reaction buffer (50 mM Tris pH 8.0, 5 mM MgCl2, 10 mM creatine phosphate, 0.6 U/mL inorg. PPase, 0.6 U/mL creatine kinase, 2 mM ATP) preincubated with 20 μM E2-25K. 0.1 μM E1 (R&D Systems) was added to this reaction system to initiate diUb synthesis, and it was left for 18 h at 37 °C. The reaction was quenched by dilution with 4 volumes of 50 mM sodium acetate (pH 4.5) and passed over a Mono S 5/50 GL column (GE Healthcare). Further purification was achieved by SEC on a HiLoad 16/600 Superdex 75 prep grade column (GE Healthcare) in buffer C.
All ^1H-^15N HSQC experiments were acquired on samples dissolved in NMR buffer (20 mM sodium phosphate, pH 6.5, 50 mM NaCl, 1 mM TCEP, 10% D2O) unless specified, in which case 2 mM DTT replaced TCEP. The samples were purified in DTT-containing buffer and then exchanged into NMR buffer by using Zeba Protein Desalting columns (Thermo Fisher Scientific). The pH was measured and adjusted to 6.5. All NMR experiments were performed at 25 °C on a Bruker Advance 600 MHz spectrometer equipped with a cryogenically cooled probe. The data were processed by NMRpipe[46] (version 11.5) and spectra visualized and analyzed with NMR-FAM-SPARKY[47] (version 3.190) by using previous chemical shift assignments[12],[23] and NMRbox[48]. The amide nitrogen and hydrogen chemical shift perturbations (CSP) were mapped for each amino acid according to Eq. 1.1 CSP=0.2ΔδN2+ΔδH2
Supplementary Figure 13: NMR experiments of hRpn13 Pru binding to K48-diUb^EDGEGEE, K48-diUb^ENT or K48-diUb^D77. a) ^1H-^15N HSQC spectrum of 0.1 mM ^15N-labeled hRpn13_ΔMTT alone (black) or with equimolar K48-diUb^EDGEGEE (blue), K48-diUb^ENT (red) or K48-diUb^D77 (green). Select residues are labeled. The spectra were acquired on a 600 MHz spectrometer equipped with a cryogenically cooled probe and at 25°C samples with samples dissolved in 20 mM sodium phosphate, pH 6.5, 100 mM NaCl, 1 mM TCEP, 10% D2O.

“K48-diUb^D77: K48-linked diubiquitin from Ub-D77 (proximal) and Ub-K48R (distal) [reference compound]”: the “ubiquitin contact surface binding (HSQC)” value (100 μM 15N-hRpn13_ΔMTT) is reported as “binding to ubiquitin was observed”.

Take “K48-diUb^EDGEGEE: K48-linked diubiquitin extended by linker GSGGSG followed by EDGEGEE”: where the note is “100 μM 15N-hRpn13_ΔMTT”, the “bound state hRpn13 F76 signal” value is “A bound state hRpn13 signal was only observed for K48-diUb^EDGEGEE”, the “strength of complex with hRpn13 (HSQC)” value was “stronger complex with hRpn13 compared to K48-diUb^ENT or K48-diUb^D77” and the “ubiquitin contact surface binding (HSQC)” value is “binding to ubiquitin was observed”. Moreover, the “hRpn13 D78, A100, and G101 signal shifting compared to K48-diUb^D77” value (sub-stoichiometric K48-diUb concentrations) was “more pronounced shifting at sub-stoichiometric concentrations”.
